Measurements from patent EP3632462A1.
One block for each substance: values may come before it.

Tests used:
[1] = target: IgG1-005-E345R/E430G/S440K (human); assay: HP-SEC in PBS pH 7.4, equimolar mixture of the two antibodies
[2] = target: IgG1-005-E345R/E430G/Y436I/S440K (human); assay: as above
[3] = target: IgG1-005-E345R/E430G/S440Y (human); assay: HP-SEC with multiple angle light scattering (MALS), self-association
[4] = target: Protein A column (HiTrap MabSelectSuRe); assay: saturated 1.0 mL HiTrap MabSelectSuRe column loaded at pH 5.0 (antibody monomeric), A280 of the dialyzed eluate
[5] = target: Protein A (Staphylococcus aureus) (UniProt P38507); assay: apparent IgG concentration on Octet QK protein A sensortips against an IgG standard curve; A280 gave 2905 µg/ml
[6] = target: IgG1-005-E345R/E430G/S440Y (human); assay: dynamic light scattering, 2.86 mg/mL in PBS pH 7.4, self-association
[7] = target: Protein A column (HiTrap MabSelectSuRe); assay: 1.0 mL HiTrap MabSelectSuRe column, pH 5.0 against neutral pH
[8] = target: Protein A (Staphylococcus aureus) (UniProt P38507); assay: ratio of the concentrations by Octet protein A and by A280
[9] = target: Protein A column (HiTrap MabSelectSuRe); assay: saturated 1.0 mL HiTrap MabSelectSuRe column loaded at neutral pH (hexamerization allowed), A280 of the dialyzed eluate
[10] = target: FcyRIIIa receptor, V158 (high affinity) variant (UniProt P08637); assay: cell-based or functional assay
Sequence of FcyRIIIa receptor, V158 (high affinity) variant (P08637 other isoform, or with tags, fused parts or gaps mutant limits assumed): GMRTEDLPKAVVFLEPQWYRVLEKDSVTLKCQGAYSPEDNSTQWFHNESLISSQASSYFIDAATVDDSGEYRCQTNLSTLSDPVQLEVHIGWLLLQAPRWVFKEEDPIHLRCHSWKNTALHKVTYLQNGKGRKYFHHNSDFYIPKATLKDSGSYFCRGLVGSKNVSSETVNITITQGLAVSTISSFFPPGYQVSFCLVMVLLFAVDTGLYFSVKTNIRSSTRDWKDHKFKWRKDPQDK

[11] = target: C1q (human) (UniProt P02745); assay: ELISA: antibody dilution series coated, 3% pooled human serum as source of C1q, anti-C1q detection
Sequence of C1q (human) (P02745 23-245 limits assumed, chain 1 of 3): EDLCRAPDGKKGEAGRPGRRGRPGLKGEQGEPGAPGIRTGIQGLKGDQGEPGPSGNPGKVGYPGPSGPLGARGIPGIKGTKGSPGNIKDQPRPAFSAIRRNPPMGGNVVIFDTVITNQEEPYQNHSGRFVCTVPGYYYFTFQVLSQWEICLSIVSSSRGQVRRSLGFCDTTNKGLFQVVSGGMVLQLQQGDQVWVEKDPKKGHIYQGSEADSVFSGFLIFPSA
Sequence of C1q (human) (P02746 28-253 limits assumed, chain 2 of 3, further chain): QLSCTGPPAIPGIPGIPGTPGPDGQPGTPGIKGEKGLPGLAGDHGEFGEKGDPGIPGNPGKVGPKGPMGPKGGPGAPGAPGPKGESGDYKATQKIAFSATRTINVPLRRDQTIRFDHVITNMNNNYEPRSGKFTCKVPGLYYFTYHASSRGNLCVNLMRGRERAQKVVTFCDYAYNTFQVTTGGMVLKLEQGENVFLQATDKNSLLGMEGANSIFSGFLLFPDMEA
Sequence of C1q (human) (P02747 29-245 limits assumed, chain 3 of 3, further chain): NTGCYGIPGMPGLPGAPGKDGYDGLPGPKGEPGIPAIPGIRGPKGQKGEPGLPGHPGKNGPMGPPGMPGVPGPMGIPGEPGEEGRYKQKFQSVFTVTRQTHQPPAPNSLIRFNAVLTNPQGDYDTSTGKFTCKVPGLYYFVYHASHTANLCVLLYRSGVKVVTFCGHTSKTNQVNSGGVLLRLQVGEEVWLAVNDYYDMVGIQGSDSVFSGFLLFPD

multimers (HP-SEC) [1]: 65%
multimers (HP-SEC) [2]: 93%
Substance: IgG1-005-E345R/E430G/K439E/S440Y (antibody)

Substance: IgG1-005-E345R/E430G/S440Y (antibody)
apparent average MW of the multimeric peak [3]: 772 kDa
monomeric subunits per complex (monomeric subunits) [3]: 5.4
yield of Protein A purification at 1.0 mL scale [4]: 29.1 mg
Octet-Protein A [5]: 2050 µg/mL
apparent MW in solution [6]: 876 kDa
monomeric subunits per complex (monomeric subunits) [6]: 6.17
increase of protein yield, binding at pH 5.0 against neutral pH [7]: 36%
A280/Protein A x 100 (%) [8]: 71%
yield of Protein A purification at 1.0 mL scale [9]: 21.4 mg
EC50 (ng/mL), ADCC reporter assay with Raji target cells [10]: 36 ng/mL
Maximal signal (RLU), ADCC reporter assay with Raji target cells [10]: 394000 RLU
EC50 [11]: 0.52 µg/mL
